{"source": "patent US20250304636"}
{"substance": "Syk", "values": [{"measurement": "tyrosine phosphorylation of Syk (IP of Syk, western blot with pan-phospho-tyrosine antibody 4G10)", "setting": "DAP12 mutant P17", "value": "P17, P19 and P23 were able to induce tyrosine phosphorylation of Syk"}, {"measurement": "tyrosine phosphorylation of Syk (IP of Syk, western blot with pan-phospho-tyrosine antibody 4G10)", "setting": "DAP12 mutant P19", "value": "P17, P19 and P23 were able to induce tyrosine phosphorylation of Syk"}, {"measurement": "tyrosine phosphorylation of Syk (IP of Syk, western blot with pan-phospho-tyrosine antibody 4G10)", "setting": "DAP12 mutant P23", "value": "P17, P19 and P23 were able to induce tyrosine phosphorylation of Syk"}]}
